Laboratory results taken from PMC3616969.

Key:
[1] = target: HIV-1 AD8 gp41 (wild type), cut from Env gp160; assay: radioimmunoprecipitation with HIVIG of metabolically labelled cell lysates and supernatants, SDS-PAGE, phosphorimager scanning
[2] = target: HIV-1 AD8 gp41 K601D (HIV-1 AD8); assay: gp120 shedding assay (radioimmunoprecipitation of cell lysates and culture supernatants); 293T cells transfected with Env vectors, 35S pulse 45 min, chase 5-6 h; cell lysates and clarified supernatants immunoprecipitated with IgG14 and protein G Sepharose; reducing SDS-PAGE, phosphorimager; gp120-shedding index against WT
[3] = target: HIV-1 AD8 gp41 K601N (HIV-1 AD8); assay: as above
[4] = target: HIV-1 AD8 gp41 (wild type), cut from Env gp160 (HIV-1 AD8)
[5] = target: HIV-1 AD8 gp41 K601N (HIV-1 AD8)

Chain of C34, HR2-based fusion inhibitor peptide (P03375 628-661): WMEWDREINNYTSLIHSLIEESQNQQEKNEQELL

Row | Substance | other: gp120-shedding index [1] | other results
1 | HIV-1 AD8 gp120 (wild type), cut from Env gp160 S188N | 1.6 | –
2 | HIV-1 AD8 gp120 (wild type), cut from Env gp160 (natural protein) | – | gp120 shedding, fold with respect to WT [2]: 6.8 fold; gp120 shedding, fold with respect to WT [3]: 4.4 fold
3 | C34, HR2-based fusion inhibitor peptide | – | IC50 of C34 for inhibition of cell-cell fusion by WT Env (luciferase) [4]: 100 nM; IC50 of C34 for inhibition of cell-cell fusion by ΔN139INN/K601N Env (luciferase) [5]: 100 nM
4 | HIV-1 AD8 gp120 T138N (natural protein) | – | gp120-gp41 association, fold improvement with respect to K601D [2]: 2 fold
5 | HIV-1 AD8 gp120 (wild type), cut from Env gp160 S144N | 0.6 | –
6 | HIV-1 AD8 gp120 (wild type), cut from Env gp160 T138N | 0.5 | –
7 | HIV-1 AD8 gp120 (wild type), cut from Env gp160 N160Q | 0.7 | –
8 | HIV-1 AD8 gp120 (wild type), cut from Env gp160 S158N | 3.6 | –
9 | HIV-1 AD8 gp120 (wild type), cut from Env gp160 S143N | 0.6 | –
